In the RNAGym collection of RNA variant scans (doi:10.1073/pnas.2313332121):

B1: TPR t1 (parent)
chain: GACCAAUCUGCCCUCAGAGCUCGAGAACAUCUUCGGAUGCAGAGGAGGCAGGCUUCGGUGGCGCGAUAGCGCCAACGUCCUCAACCUCCAAUGCAUCCCACCACAUGAUGAUGCCUGAAGAGCCUUGGUUUUUUG

Variants of: B1
Assay: polymerase ribozyme fitness, log enrichment relative to wild type (log ratio); higher = more active; in vitro selection for triplet polymerase activity
Summary of the method: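 PCR was used to build mutant libraries for each subunit of a heterodimeric triplet polymerase ribozyme, which were then transcribed. A single in vitro selection round, in triplicate, used a frozen incubation at −7 °C and recovered extended constructs by gel excision, streptavidin beads and RT-PCR. Fitness is the logarithm of genotype enrichment relative to wild-type enrichment, averaged over replicates with inverse-variance weights. The logarithm is base 2, and after Illumina sequencing only genotypes with ≥10 input reads and ≥1 read per output were kept.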

Variant	polymerase ribozyme fitness (log ratio)
C12G A24U C76A C82A G120C	-6.17
C12G G57A G61U C80A	-2.05
C12A C98U G110C U131A	-6.2
C12G G71C U96A A108G C123G	-4.58
C12G C28U A66C C72U A84C	-3.81
C12G G48C C49A U55C G61A A95G G110A	-2.17
C12A G61A G93A	-0.608
C12G U32A A37U	-3.65
C11U U106G	-1.1
C11U C49U G63A U109A G117C A119U	-7.12
C11U C85U	-1.93
C11U G42C G44U C62U	-2.34
C12A C72G	-0.22
C12A C72U	-0.97
C11U A27G C76G C80A C85A U112G	-0.749
C12A C40U C56A U96A G117A	-5.83
C12A U21C A83C	-0.123
C12A C62G C72G	-6.48
C11U G77U A91U	-1.63
C12A G48C U54C A83C C88A	-2.86
C11U C86U	-0.821
C11U C53G C64U C101U U125A	-1.43
C11U A18U C53U C72G C82G U96G C98U C104U U109C	-7.77
C11U C53A G63C A103C G113U	-6.41

Variant	polymerase ribozyme fitness (log ratio)
C12G G52A C88U G120U	1.84
C12G C53A G71U G107C U112C	-4.39
C12A G47A C70U C88U U106A	-2.59
C11U G45A U78A C86A U106A U125A	-6.24
C12A C13U G61U U106A	-0.644
C12G U14G G57A G113U	-7.24
C12A U81A U133A	-1.05
C12G U59G G60U A95U G110C	-5.19
C12A A41G G61U G117C G135C	-4.3
C11U A41C C49G U59A G61U A91C U130G	-3.24
C12G A37U A105C U112C	-0.116
C12A A24G A41U G71C C88U A90G C123G	-4.92
C11U C104U U126G	-2.39
C12A C62U	-0.927
C12A G47U G60A U78A	-2.01
C12G C49G U54A	-0.423
C12A C49A G63U A121U U132C G135A	1.42
C12G G17U G57C C62A C115G U129C U132C	-3.27
C12G G51C	-3.21
C12A C53A G61U U109G G117C U125A U126C	-7.8
C11U G17A U106A	-3.29
C11U A41U G69U A74G G117A U125A U130A U131A	-6.86
C12G C13A A50C A119U G127A	-1.75
C11U A29U A91U G107C C114U	-5.83

Variant	polymerase ribozyme fitness (log ratio)
C11U C15G G47A C86A A90G G117U G120C	-0.496
C11U A46C G120A U133G	-0.579
C11U G71A U133G	-1.59
C12G C88A	0.489
C11U G60A	-0.708
C12G C72U A100C	-1.28
C11U G39A	-1.08
C12A A29U C49U A74G C123A U131A	-1.45
C12A G117C A121G	-3.52
C11U A100C G110A	-2.68
C12A C22A G52A A84U A91C G120C	-6.58
C12G C20U G36A G71A C80U C82A C88A G120U U126C	-5.21
C12G G19U C72U	-6.54
C12G G36U C56U A121U G122U	0.307
C11U U33A C85G C101U	-5.74
C12A A84U	-1.96
C11U U21C G120U	0.267
C12G C13A C56U C124A U132C	0.686
C11U C53G A91U	-1.86
C12G A18U G39A G52A G60A C82U U106G G120A	-3.95
C12A G69U G107C G117C	-6.81
C11U G57A G63A C101G	-3.69
C12A U32C G107A G120A	-3.32
C12A A74G C123A U131A	2.13

Variant	polymerase ribozyme fitness (log ratio)
C11U C15U G45U C64U U78A C80U C82U A111U	-8.07
C11U G17A G57C C89U G120C	-1.86
C11U U21G G42A U96G	-4.94
C12A C62A G77A	-3.27
C11U C15A C40U C73A C123G	-0.889
C12G C20A C49A	-2.49
C11U G45A	-0.828
C12A C20A C64A C88U U116C	-6.74
C11U U33G	-5.16
C11U C94A C102A	-3.51
C11U C22U C70U C99U U112A	-6.17
C12G C62U	0.0184
C12G C73A A74G C89A A111G G127U	-5.44
C12A G63A C89G C114A	-6.47
C12A G19C A91U U126G	-5.51
C11U C13U	-1.63
C12A C20A G61A C88U U116C	-4.6
C12G C15G G45A C49G C85U C124U	-2.82
C12G A16U G48A C82A	-3.19
C11U G42C C53A	-2.22
C12G A37C A41U C79A	-3.13
C11U C12U C34A G63U U78C C104G G117C	-6.71
C12G G36C A43C G63C	-4.59
C12G U112A U133G	1.61

Variant	polymerase ribozyme fitness (log ratio)
C12A C123G	1.19
C11U C70U C102U	-3.34
C12A C115A	-0.819
C12A G60A G110U G122A U132A	-3.16
C11U A74G C89G	-3.01
C11U C76U	-0.741
C11U C76A	-0.763
C12A G39U	-1.1
C11U G63U	-1.27
C11U G63A	-1.15
C12A G48C U116G	-5.7
C12A A37U A68G C114G	-6.56
C12G C89A	-1.41
C11U U30G G120C	-5.71
C12A A18C A29G C72A	-2.28
C12A C53G G69A C115A U116A	-7.23
C11U C22G C40U G69A	-5.5
C12G C115G	-2.46
C11U C13U U32C	-1.05
C12G A83G C88G U125G	-2.21
C12G G93A C94U	-1.83
C11U C56U	-0.0444
C11U C89G	-1.89
C12G G42U C49A G113C U132A	-2.5

Variant	polymerase ribozyme fitness (log ratio)
C12A G25U A27C A37C U38A C70G C82U C115U	-6.08
C12A A46U G47C	-1.36
C11U C70G	-2.97
C11U C70U	-0.753
C11U U78C	-0.264
C12A G57A	-1.19
C12G C13A C72G C124U	-0.0514
C11U A43C G69C G77U U112G U134G	-5.15
C12G A29U C62G	-2.88
C11U G42U G48C C88U G135C	-1.51
C12G G19C	-1.64
C11U G61A	0.135
C11U G128C	-2.9
C12A C80U G120U U132A	1.64
C12A U32G C53A C89U C114A	-8.31
C11U G61A C94G	-0.792
C11U G44A G52A A118C C123G	-1.81
C12A A16U G44C C94U G117C U129G	-5.45
C12A C99U C123U U129G	-3.57
C12G G44A G48U A103G U112A C115A	-6.92
C11U G42A C85G	-3.59
C12A G39U A50U U133A	-1.46
C11U U32A C34U G69U C88A	-4.62
C11U C49G U92A C123G	-3.91

Variant	polymerase ribozyme fitness (log ratio)
C12A G57U G61U C89G	-5.96
C11U C20A G57A C62U U87A	-4.19
C12G G35A A74U	-4.41
C12A C97A U131A	-4.52
C11U C88U C104A A121G	0.139
C12A C20U A26C G48A C49A A121G U133A	-5.75
C12G G47C A66U A90C G120C U129A	-6.06
C12G C72A	-0.123
C11U U55G	-2.15
C12A G47A C102G A111C A118C U129C	-7.59
C12A G19A C20A C53U C89A	-3.61
C11U A46C	-1.05
C12A G19C G58A C82G	-3.7
C12A A24U U32A C99A U116C U130G	-7.85
C12A A46U C82U	-1.99
C11U C13A U78A	-0.472
C12A C64U U81A	-1.67
C12G A27G C64U C104U	-2.48
C11U G19U U54A G71A A121C G135U	-4.33
C11U G48U U59C A84G C101A	-2.88
C12A U116A C124A	-0.089
C12G G35A G48U G57U C80U	-4.47
C11U C115G	-1.7
